Literature values in US8679781B2, “In vitro peptide expression library” (Isogenica Limited, priority 2002, dated 2014).

Biological target: double stranded DNA oestrogen receptor target HRE nucleotide sequence
Conditions: fragment expressed in E. coli; similar to the parent molecule; read-out: affinity

Kd: 0.5 nM
B1: oestrogen receptor DNA binding domain fragment (amino acids 176-282): oestrogen receptor DNA binding domain fragment (amino acids 176-282) expressed in E. coli (protein, UniProt P03372 176-282, looked up, fragment)
chain: MESAKETRYCAVCNDYASGYHYGVWSCEGCKAFFKRSIQGHNDYMCPATNQCTIDKNRRKSCQACRLRKCYEVGMMKGGIRKDRRGGRMLKHKRQRDDGEGRGEVGS
